Results taken from the RNAGym collection of RNA variant scans (doi:10.1073/pnas.2313332121).

B1: TPR t1 (parent)
chain: GACCAAUCUGCCCUCAGAGCUCGAGAACAUCUUCGGAUGCAGAGGAGGCAGGCUUCGGUGGCGCGAUAGCGCCAACGUCCUCAACCUCCAAUGCAUCCCACCACAUGAUGAUGCCUGAAGAGCCUUGGUUUUUUG

Variants of: B1
Test: polymerase ribozyme fitness, log enrichment relative to wild type (log ratio); higher = more active; in vitro selection for triplet polymerase activity
Procedure, shortened: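 Fitness compares each genotype's enrichment to that of the wild type on a logarithmic scale, averaging replicates with inverse-variance weights. The logarithm is base 2. Enrichment came from Illumina sequencing of input and output libraries after one triplicate round of in vitro selection, which included frozen incubation at −7 °C, of PCR-built, transcribed mutant libraries of each subunit of a heterodimeric triplet polymerase ribozyme. Only genotypes with ≥10 input reads and ≥1 read per output were kept.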

Variant	polymerase ribozyme fitness (log ratio)
GACCAAUCUGCCCUCAGAGCUCGAGAACAUCUUCGGAUGCAGAGCAGGCAGGGUUCGGUGGCGCGAUAGCGCCAACGUCCACAACCUCCACUGCAUCCCACCACAUGAUGAUGCCUGAAGAGCCUUGGUUUUUUG [G45C C53G U81A A91C]	-4.15
GACCAAUCUGGCCUCAGAGCUCGAGAGCAUCUUCGGAUGCAGAGGAGGCAGGCUUCGGUGGCCCGAUAGCGCCAACGUCCUCAACCUCCAAUACAUCCCACCACAUGAUGAUGCCUGAAGAGCCUUGGUUUUUUG [C11G A27G G63C G93A]	-3.72
GACCAAUCUGCCCUCAGAGCUCGAGAACAUCUUCGGAUGCAGAGGAGGCAGGCUUCGGUGGCGCGAUAGCGCCAACGUCCUCAACCUCCAAUGCAUCCCACCACGUGAUGAUGCCUGAACAGCCUUGGUUUUUUG [A105G G120C]	-1.97
GACCAAUCUGCCCUCAGAGCUCGAGAAGAUCUUCGGAUGCAGAGGAGGCAGGCUUCGGUGGCGCGAUAGCGCCAACGUCCUCAACCUCCAAUGCAUCUCACCACAUGAUGAUGCCUGAAGAGCUUUGGUUUUUUG [C28G C98U C124U]	-3.04
GACCAAUCUGCCCUCAAAGCUCGAGAACAUCUUCGGAUGCAGAGGUGGCAGGCUUCGGUGGCGCGAUAGCGCCAACGUCCUCAACCUCCAAUGCAUCCCACCACAUGAUGAUGCCUGAAGAGCCUUGGUUUUUUG [G17A A46U]	-4.52
GACCAAUCUGCCCUCAGAGCUCGAGAACAUCUUCGAAUGCAGAGGAGGCAGGCUUCGGUGGCGCGAUGGCGCCAACGUCCUCAACCUCCAAUGCAUCCCACCACAUGAUGAUGCCUGAAGAGCCUUGGUUUUUUG [G36A A68G]	-3.57
GACCAAUCUGCCCUCAGAGCUCGAGAACAUCUUCAGAUGCAGAGGAGGCAGGCUUCGGUGGCGCGAUAGCGCCAACGUCCUCAACCUCCAAUGCAUCCCACUACAUGAUGAUGCCUGAAGAGCCUUGGUUUUUUG [G35A C102U]	-5.08
GACCAAUCUGCUCUCAGAGCUCGAGAACAUCUUCGGAUGCAGAGGAGGCAGGCUUCGGUGGCGCGAUAGCGCCAACGUGCUCAACCUCAAAUGCAUCCCACCACAUGAUGAUGCCUGAAGCGCCUUGGUUUUUUG [C12U C79G C89A A121C]	-3.82
GACCAAACUGCCCUCAGAGCUCGAGAACAUCUUCGGAUGCAGAGGAGGCAGGCUUGGGUGGCGCGAUAGCGCCAACGUCCUCAACCUCCAAUGCAUCCCAUCACAUGAUGAUGCCUGAAGAGCCUUGGUUUUUUG [U7A C56G C101U]	0.801
GAAGAAUCUACCCUCAGAGCUCGAGAACAUCUUCGGAUGCAGAGGAGGCAGGCUUCGGUGACGCGAUAGCGCCAACGUCCUCAACCUCCAAUGCAUCCCACCACAUGAUGAUGCCUGAAGAGGCUUGGUUUUUUG [C3A C4G G10A G61A C123G]	0.689
GACCAAUCUGCCCUCAGAGCUCGAGAACAUCUUCGGAUGCAGAGGAGGCGGGCUUCGGUGGCGCGGUAGCGCUAACGUCCUCAACAUCCAAUGCAUCCCACCACAUGAUGAUGCGUGAAGAGCCUUGGUUUUUUG [A50G A66G C73U C86A C115G]	-4.26
GAUCAAUCUGCCCUCAGAGCUCGAGAACAUCUUCGGAUGCAGAGGAGGCAGGCUUCGGUGGCACGAUAGCGCCAACGUCCUCAACCUCCAAUGCAUCCCACCACAUGAUGAUGCCUGAAGAGCCUUGGUUUUUUG [C3U G63A]	-1.72
GACCAAUCUGCCCUCAGAGCUCGAGAACAUCUUCGGAUGCAGAGAAGGCAGGCUUCGGUGGCGCGAUAGCGCCAACGUCCUCAACCUCCAAUGUAUCCCACCACAUGAUGAUGCCUGAACAGCCUUGGUUUUUUG [G45A C94U G120C]	0.045
GACCAAUCUGCCCUCAGAGCUCGAGAACAUCUUCGGAUGCAGAGGUGGCAGGCUUCGGUGGCGCGAUAGCGCCAACGUCCUCAACCUCCAAUGCAUCCCACCACAUGAUGAUGGCUGAAGAGCCUUGGUUUUUUG [A46U C114G]	-3.78
GACCAAUCUGGCCUCAGAGCUCGAGAACAUCUUCGGAUGCAGAGGAGGCAGGCUUCGGUGGUGCGAUAGCGCCAACGUCCUCAACCUCCAAUGCAUCCCAGCACAUGAUGAUGCCUGAAGAGCCUUGGUUGUUUG [C11G C62U C101G U131G]	-3.31
GACGAAUCUGCCCUCAGAGCUCGCGAACAUCUUCGGAUGCAGAGGAGGCAGGCUUCGGUGGCGCGAUAGCGCCAACGUCCUCAACCUCCAAUGCAUCCCCCCACAUGAUGAAGCCGGAAGAGCCUUGGUUUUUUG [C4G A24C A100C U112A U116G]	-5.42
GACCAAUCUGCCCUCAGAGCUCGAGAACAUCUUCGGAUGCGGAGGAGGCAGGCUUCGGUGGCGAGAUAGCGCCAACGUCCUCAACCUCCAAUGCAUCCCACCACAUGAUGAUGCCUGAAGAGCCUUGGUUUUUUG [A41G C64A]	-7.34
GGCCAAUCUGCCCUCAGAGCUCGAGAACAUCUUCGGAUGCAGAGGAGGCAGGCUUCGGUGGAGCGAUAGCGCCAACGUCCUCAACCUCCAAUGCAUCCCACCAUAUGAUGAUGCCUGAAGAGCCUUGGUUUUUUG [A2G C62A C104U]	-0.429
GACCAAUCUGCCCUCAGAGCUCGAGAACUUCUUCGGAUGCAGAGGAGGCAGGCUUCGGUGCCGCGAUAGCGCCAACGUCCUCAACCUCCAAUGCAUCCCACCACAUGAUUAUGCCUGAAGAGCCUUGGUUUUUUG [A29U G61C G110U]	-3.06
GACCAAUCUUCCCUCAGAGCUCGAGAACAUCUUCUGAUGCAGAGGAGGCAGGCUUCGGUGGCGCGUUAUCGCCAACGUCCUCAACCUCCAAUACAUCCCACCACAUGAUGAUGCCUGAAGAGCCUUGGUUUUUUG [G10U G35U A66U G69U G93A]	-5.9
GACCAAUCUGCCCUCAGAGCUCGAGAACAUCUUCGGAUGCAGAGGAUGCAGGCUUGGGUGGCGCGAUAGCGCCAACGUCCUCAACCUCCAAUGCAUCCCACCACAUGAUGAUGCCUGUAGAACCUUGGUUUUUUG [G47U C56G A118U G122A]	-2.71
